Laboratory results as given in article PMC5225881, “Open and compressed conformations of Francisella tularensis ClpP” (Proteins, 2016).
Where “and” joins values, the source holds several entries; their conditions need not be identical. Equal values may be shown once.

Target: the molecule itself
Assay: native gel or EMSA; purified sample applied to a native gel; conditions not given

B1: Francisella tularensis caseinolytic protease catalytic subunit P (ClpP) (enzyme)
chain: not shown
notes: also called FtClpP; FtClpP:I; copies: 14
For B1, the “stoichiometry N” value was 7 and 14.
